# In paper PMC6439349:
# B1: TioT (natural protein)
# chain: MSVNPFDDEDGEFYVLVNDEEQHSLWPTFGDVPDGWRIVFGPAGRAESVAYVEENWTDMRPKSLREAMSAA
# B2: CouY (natural protein)
# chain: MATNPFDDENGVYLLLVNDEGQHSLWPSFAALPKGWTVILDEASRQECLDYVNEHWTDMRPLSLQPAMGDE
# B3: MbtH (natural protein)
# chain: MSTNPFDDDNGAFFVLVNDEDQHSLWPVFADIPAGWRVVHGEASRAACLDYVEKNWTDLRPKSLRDAMAED
# What was measured:
# TioK [1] = experiment: AUC
# [2] = molecular target: TioK-Ecm8 complex (not stated | Streptomyces lasaliensis); experiment: AUC
# [3] = molecular target: TioK-KtzJ complex (not stated | Kutzneria sp. 744); experiment: AUC
# [4] = molecular target: TioK-MbtH complex (not stated | Mycobacterium tuberculosis H37Rv) (UniProt P9WIP4); experiment: […]
# [5] = molecular target: TioK-MyabAaA complex (not stated | Mycobacterium abscessus); experiment: AUC
# [6] = molecular target: TioK-MyavAcA complex (not stated | Mycobacterium avium); experiment: AUC
# [7] = molecular target: TioK-MymaAcA complex (not stated | Mycobacterium marinum); experiment: AUC
# [8] = molecular target: TioK-MypaAaA complex (not stated | Mycobacterium paratuberculosis); experiment: AUC
# TioK-TioT complex = TioK-TioT complex (UniProt Q333U6); experiment: AUC
# TioK [9] = experiment: […]
Molecule,approximate mole fraction of TioK-MLP complex (TioK [1]),stoichiometry N (TioK [1]),also measured
Ecm8 (natural protein),0.76,1 MLP per TioK,–
KtzJ (natural protein),0.92,1 MLP per TioK,–
PA2412 (from UniProt Q9I169 1-72) (natural protein),0.87,1 MLP per TioK,–
TioK-Ecm8 complex,–,–,stoichiometry N (multiple of MW(1:1)) [2]: 1.93
TioK-KtzJ complex,–,–,stoichiometry N (multiple of MW(1:1)) [3]: 1.92
TioK-MbtH complex (from UniProt P9WIP4 1-71),–,–,stoichiometry N (multiple of MW(1:1)) [4]: 2.06
TioK-MyabAaA complex,–,–,stoichiometry N (multiple of MW(1:1)) [5]: 1.96
TioK-MyavAcA complex,–,–,stoichiometry N (multiple of MW(1:1)) [6]: 1.96
TioK-MymaAcA complex,–,–,stoichiometry N (multiple of MW(1:1)) [7]: 1.94
TioK-MypaAaA complex,–,–,stoichiometry N (multiple of MW(1:1)) [8]: 2.05
TioK-TioT complex (from UniProt Q333U6 1-71),–,–,stoichiometry N (multiple of MW(1:1)) (TioK-TioT complex): 1.98
B1,0.88,1 MLP per TioK,–
B2,0.84,1 MLP per TioK,–
B3,–,–,approximate mole fraction of TioK-MLP complex (TioK [9]): 0.82; stoichiometry N (TioK [9]): 1 MLP per TioK
